Two substances from article doi:10.1101/2020.11.19.389874 can be followed below.

Assay [1] deals with Urn8RB (Urinate Receptor isoform RB) expressed in CHO/G16 cells (Tribolium castaneum).
Assay [2] addresses Urn8RA (Urinate Receptor isoform RA) expressed in CHO/G16 cells (Tribolium castaneum).

Turning to “Tribolium castaneum diuretic hormone 37 (DH37), unlabeled (peptide)”, the bioluminescence response of CHO/G16 cells expressing Urn8RB, dose-response, EC50 in assay [1] turned out to be 450 nM. In assay [2], this substance displayed a bioluminescence response of CHO/G16 cells expressing Urn8RA, dose-response, EC50 of 160 nM.

As to “Tribolium castaneum diuretic hormone 47 (DH47), unlabeled (peptide)”, the bioluminescence response of CHO/G16 cells expressing Urn8RB, dose-response, EC50 in assay [1] was 340 nM. The substance also showed a bioluminescence response of CHO/G16 cells expressing Urn8RA, dose-response, EC50 in assay [2] of 380 nM.
